experiment: soluble fraction after stress (log2 fold change); higher = more stays soluble; pooled small domains, quantitative proteomics; conditions: stress: pH 4
Procedure, shortened: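 Aggregation propensity is estimated from the fold change in each domain's soluble amount after acid stress. Pooled small-domain libraries were stressed at pH 4, and higher log2 values mean more stayed soluble.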

Sequence | soluble fraction (log2)
HMNNPLLDKVYQLMKQNNITEEEIVRAVAMKGYFPDDMKLGDYPDDFIDGVLIGAWDQIKQFIINNISPFK | -0.359
HMNNSDIDITVGKNSISINNPNRTNIIIYSSNGMLIDSSKNASYKRNLPSGIYIVKSGSSTHKVIV | ≥ 0.43
HMNNTIKFFVSQDDDSTRLDVFLSKKIENLTRSNIKKFINLNNVKINKATINSPSKKVKLYDEIEIKFSS | -1.19
HMNNTIKFSVDSQNSGKRLDIFLTENIKNYTRSFLKKLIENRQVKLNNNFIISPSERVKFKDQININILQ | 0.199
HMNNVDIMGRMVYDDQHREVINFGKYKGVLVTEVLKKDPGYFSWIQQGDFPSDMKRIMMAIKLRM | -0.72
HMNNVDQLIEQYKTLPGGLLPLLHAIKHALGYIPESTVGSIAKGFNLSRAEVHGVISFYHDFNTQP | -0.365
HMNPAYTDSRMKTFLEELPVMKASLSQKHVTRFLVWQEYIGRHPDGYGKSQFFYHLKQNLVAAKG | 0.0452
HMNPDTERIREFVAVSLKNRKVATSGEIQNMIVKQFKNFKLKSHGYSNMKSFLSSIDKIQLNSNGKYSLK | 0.0764
HMNPEDDLLKAIIMKYFSNAQVQVDKNVIEYLLKRVDRDYQNLYNILEKINILSLQRKSKITTHLIRDIM | -0.624
HMNPFLELTEREMDVLRLIAIGRNNQEIASELVISEKTVKTHITNIFSKLHFKDRTQAAAYAWQSGIVR | -1.07
HMNPHGVAIIDVRKGKASTLRSLATSVRSLGEWDQLKIPIFNLESLTSLVLWHGLDAIVKEPESLQSNLIL | -0.222
HMNPHIQFWSLLRRQPDYNSAYKDELKAMFVWQWSGEKTESLNEFYKTDPYRYKSMLMDMRNRAL | -0.354
HMNPIDAHVGARVRLRRMLIGMSQEKLGELLGVTFQQIQKYEKGANRIGASRLYEVSRVLDVPVQYFFDDM | -0.436
HMNPLDGTSVHPESYEAAEKLLKKQGFSLEDISGGKLTGLSLTIKDYARLAKELEIGEITLRDIVKELEK | -0.747
HMNPLHYKAAHWVREGLFDDLKSFVELETRINSIFEEKDRGDVFEIFIEGYRSFSKWRALVLRLA | -0.44
HMNPNEVQIPDLVNKTEEEAEQILKDLKLKLVVKSEEYDENIEKGKIISQDPTYKENYKIKEHSEISVIIS | 0.0816
HMNPNPFVNLSPRELEVLNLLFKGYGVLEISNELNIGQTTASTFKSRILKKTSTHSVVELIKLAEQYGFIP | -0.847
HMNPNPYIVLGVDKSMPFGEIKKVYQRKRREFHPDSLVAKGLPDELLQKAQDKFIAIQEAYKSIEKNQV | 0.0331
HMNPNSIDEKLKLLSNREKEVAILVLKKLSYFEISEQLNITIRTVKAHTKNIYEKFNVSNRLAFLLLFN | -0.209
HMNPSAFSEYSFELLQSALLKKKIDENLSNQTIARDAGVSEAFVQKVLTNNVKRPSVKNRVRMISYLGLD | 0.00228
HMNPSFTMGTRIKEYIDAHYLEDLKLADIAEALHINLYYLSHTFKDLTGSSPMQYIIRRRIEE | -0.603
HMNPSPYLRRHLSGDWGDLDEDDRRSNDAALASGEARLLSSYQVDPDLKLWIITEWDRSVTTLLLPSE | ≥ 0.43
HMNPTLPYGFAKRHGVILLEAGEVAVVGLREGADPAALIETRRALGRPLRVEPLDQATFDRRLSQVYA | -0.15
HMNPTSLTFRSNVKDGKVYVDGIFKGSSDLDFDLPKGRHSIRIEKDGYVPFAKTINLIKALVIDFNMEKA | 0.123
HMNPTTQIQYNLPKSEFVSIYIYDLIGNRVKSLINNYQDAGYKSVYWDAMNDLGQPVSAGMYIY | -0.0442
HMNQKKFIQADYEDRLFDHLAFEVKDMEKIISMMRREKFTITDEPFRLSPTGSLIAFVEDPDRTLIELIER | -0.522
HMNQNAMIGAHIRNLRLAKKLTLKQLSDESGLSVGFLSQLERGMSSIAIDTLARLAHILGADLSSFF | -0.214
HMNQRQLQIKQMLDVAQEVFLKQLKTVFPDVSEMTIRRDLILLEDMGYAVRTHGGAVSINRF | -1.2

Sequence | soluble fraction (log2)
HMNQRTATVTASQLNVRSGPSTAYSIVHVLRQGETVEVIGESDGWYQIRLKDGRVGWSSGQYLNLN | -0.481
HMNQSAVMAERMKQTKNRILQTAKEIFLEQGYKRTTIRQIVERSGITSGSIYNIFSSKEEIFSALVDDL | -1.77
HMNQSYQLWIKDDELGPTPRSVGVLNEHFEVDPAALTNYDAELLRRATFGISLEPRGGSPTGQP | -0.688
HMNQTPQISYSQFIADVRSGQIKDVNIDSDNRTIVGHKFSGEEFTTFSPGDNKLVDELLNYNVEIKTSP | -0.125
HMNREEFLSQLERLLYDIPAQEREEALEYYNGYFDDAGKEKEAEVIQELGSPGKVAAIIKADLSG | -0.605
HMNRETAISIYRILHILEEPYKEVFTLRTLGDLSYREIADIFGKQENWARVTYHRAKLKIREALVS | -0.71
HMNRIFQERVVPAELDTLRADKVAASLFSDFSRNELAHWIKMGDLSINGGVKKAKDKLFEGDVLILDVEIV | -0.679
HMNRKILVLLAGKEQITDNVSVMQSIHRYAFINTATINKAQHEILIEKEEIRQEALTLIHEFLK | 0.0276
HMNRKLKAKATREKIYKSAEKLFSQNDYNKVSVDAIVEAAGVAKGSFYVHFASKDALIAMLINDH | -0.012
HMNRMKLLREQHNLSQTDLAKILNISRQSYNFYENEKRDPDTTMLIRIADFFNVSLDYLLGRTNN | -0.0385
HMNRPYVELFSGLGQEEAQQIVQKLQEDEVDYKFSGDSTILVKEDVVDQTKATLVQEGYPKS | -0.392
HMNSEEINDVRKAVDELPTHLREILLLNYFQQMSYVQISDSLEIPLGTVKSRLHAAVAAFRNAWQSSQEE | -0.154
HMNSEELFLRRIAQELIDQHGKDLHRIIVVLPSNRSKVFLKKFLFEILGSAFLTPQLMLLPQFVKSIV | -0.34
HMNSFGWESFVGEKGVTDTDLRPSGWIVIKDKRLFALTEGTFIEKGVSVEILSVEGNRIVVREIS | -0.711
HMNSHKIIDRLNQMITEKDLSEEMPAITEAFKNNERSAEDLKKYVAENLSKKLNAEEREKFVSLILQYRN | -0.338
HMNSILFAITKEGGVVYGGKPVGVNGVRPLVRRLLQSEEMPVILQVDEKADAGLVIRVIDESKLGGASKV | -0.196
HMNSIQEQIEKYVYSLAPVTIERYESLKNGDIEDIEFEKLRKSISSKIINEKIDNKKQVAILSHLKKMYSD | -0.472
HMNSKIIVESIIKSKNGIAKVADLVEGGVSRQSIKKMYADGYIKRISRGYYTLTSEPVSSDEQVISS | 0.39
HMNSKMTYSELITSMENKEVESVKISSSGDVASVKLKNSKTEKEVKIPSLDSFMTYTEQYLKTGEITLEE | -0.0537
HMNSKMTYSELVTNITNKEVESIKISSTGSTASVKLKNSKSEKEVNIPSLDSFMSYTEEYLKTGDFTLDEE | -0.824
HMNSLKNKNNLIALVGASNDKNKYGNKILLDLVSKGHNVVPINPKEDTVAGLKSYNNVSELSEKPSI | -0.202
HMNSLPFSNFMNEVEAGRVVEVKIQGNNISGVLANGKTFSTYSPNYPELVEKLSSNGVSIVATPQ | -0.0501
HMNSRTLAYSDFIRKVDKGEVSAVVIDGEQVQVQTKDGQTFVTIQPQSEQMNDKLVEQLIAKDISVKAERQ | 0.0565
HMNSSLFLARQVHALRKKAGLTLQQLSRKSDVSVSTLSKIEKGQLSPTYEKIVSLARGLDVPIAALFHE | ≥ 0.43
HMNSSTVDLAKEFLIDLLSSVEKMPASEVQEEAKNAGYSVASIRRAKDNLNIKPFKDGSAWYWKLPSIFK | -0.447
HMNSSTYIVTFKVDGEEDIVETYQWGDRIIVPEVEAKDDYVFIGWDAQIPEFMPERNLEFTAI | -1.67
HMNSTNYQVIITANGGLNIRAGASTAYARIGGYAKGTVVTILAESNGFGKTDKGWISLNYTSKDLD | 0.148

Source: the domain aggregation screens of Martell et al. (2025)
